This data set has as its target VEGF165 (UniProt P15692-4 27-191). The data set can be described thus: hydrogel sequestration, anti-VEGFA immunofluorescence (confocal); aptamer tethered in GelMA hydrogel, 10 ng VEGF 1 h; GelMA region without aptamer about 16% of the aptamer-region signal; 0.1% BSA in DPBS, 37 °C, 10 ng VEGF in 1 ml for 1 h, wash, 24 h at 37 °C; 25 µM aptamer in 5% GelMA. The conditions noted are these: protein: commercial; chain copies: 2; single strand, covalently tethered in GelMA hydrogel.

Sequence of VEGF165 (P15692 other isoform, or with tags, fused parts or gaps): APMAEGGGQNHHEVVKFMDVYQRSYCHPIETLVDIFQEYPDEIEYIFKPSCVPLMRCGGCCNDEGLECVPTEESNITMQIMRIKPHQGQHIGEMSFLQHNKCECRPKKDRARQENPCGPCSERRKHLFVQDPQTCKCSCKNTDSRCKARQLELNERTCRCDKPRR

Consider CGATCGTATCAGTCCACAAGCCCGTCTTCCAGACAAGAGTGCAGGGC (ssDNA, 5'-acrydite) [VEGF165-specific 5'-acrydite aptamer], for which the binding result is on record as “binds”.

(Values after article PMC9898740, “Spatial control of self-organizing vascular networks with programmable aptamer-tethered growth factor photopatterning”.)
